Patent publication US20130310313A1

What follows are binders tested against insulin receptor (insulin receptor tyrosine kinase assay) (assay: cell-based or functional assay).

activity of insulin receptor tyrosine kinase [U/ml] | Binder
40.3 | RYKYQWFYI [IRBP-9A (SEQ ID NO:190)]
44.2 | RYKYQWWYI [IRBP-9C (SEQ ID NO:192)]

Second part, the binder before the results:

Binder | activity of insulin receptor tyrosine kinase [U/ml]
RYKYQCFYI [IRBP-9B (SEQ ID NO:191)] | 79.8
RYKYQCWYI [IRBP-9D (SEQ ID NO:193)] | 66
